According to patent US20240261333A1 (published 2024):

What was measured:
Assay in all cases: co-IP, anti-FLAG, N-FLAG B3GNT2 cell lysate, mass spectrometry
RPL37A = RPL37A (UniProt P61513 1-92)
Experimental: (§1) Cells were plated in 10-cm cell culture dishes and grown to 60-80% confluency. For each condition, two biological replicates were harvested for co-IP. Cells were washed with PBS and 4 mL of lysis buffer (20 mM HEPES, 1% Triton X-100, 150 mM NaCl, 1 mM EDTA, and 10% glycerol) containing protease inhibitor cocktail was added. Cells were scraped and lysate was incubated at 4° C. under rotary agitation for 1 h. Lysate was centrifuged at 14,000×g for 10 min at 4° C. Supernatant was transferred to a new tube and an aliquot was taken as the input. […] For Western blots, 10 μg/mL Chicken Anti-FLAG (Aves labs ET-DY100) and IgY control (R&D Systems AB-101-C) antibodies were biotinylated (Thermo Fisher Scientific 90407) and added to the respective conditions. Lysates with antibodies were incubated at 4° C. under rotary agitation overnight. For each mL of lysate, 50 μL of Pierce Protein A/G Magnetic Beads (Mass spectrometry; Thermo Fisher Scientific 88803) or Pierce Streptavidin Magnetic Beads (Western blot; Thermo Fisher Scientific 88817) was washed twice with lysis buffer. Lysates with antibodies were added to the beads and incubated at 4° C. under rotary agitation for 4 h. Beads were washed with lysis buffer 3 times and resuspended in lysis buffer for storage.
(§2) Magnetic beads were resuspended in 100 mM Tris pH 7.8, reduced, alkylated and digested with trypsin at 37° ° C. overnight. This solution was subjected to solid phase extraction to concentrate the peptides and remove unwanted reagents followed by injection onto a Shimadzu HPLC with fraction collector. Eight fractions were collected and after concentration were injected on a Waters NanoAcquity HPLC equipped with a self-packed Aeris 3 μm C18 analytical column 0.075 mm by 20 cm, (Phenomenex). Peptides were eluted using standard reverse-phase gradients. The effluent from the column was analyzed using a Thermo Orbitrap Elite mass spectrometer (nanospray configuration) operated in a data dependent manner for 54 minutes. The resulting fragmentation spectra were correlated against the known database using Proteome Discover 1.4 (Thermo Fisher Scientific).

NCCRP1 = biological target: T1, NCCRP1 (UniProt Q6ZVX7 1-275)
T1 construct: also called NP_001001414.1
T1 sequence (looked up): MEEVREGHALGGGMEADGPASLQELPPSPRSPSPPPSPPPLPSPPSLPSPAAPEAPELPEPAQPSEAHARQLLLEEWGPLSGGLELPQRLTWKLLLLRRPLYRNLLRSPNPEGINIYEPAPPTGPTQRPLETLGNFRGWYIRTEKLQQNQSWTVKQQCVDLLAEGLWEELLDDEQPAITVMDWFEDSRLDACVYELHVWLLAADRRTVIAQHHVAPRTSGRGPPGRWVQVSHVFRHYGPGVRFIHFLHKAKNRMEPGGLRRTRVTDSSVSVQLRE
Experimental: as §1, §2

SSRP1 = biological target: T2, SSRP1 (UniProt Q08945 2-709)
T2 construct: also called NP_003137.1 (+3)
Experimental: as §1, §2

EIF4G1 = biological target: T3, EIF4G1 (UniProt Q04637-3 1-1559, limits assumed)
T3 construct: also called NP_001278086.1
Experimental: as §1, §2

RPS2 = RPS2 (UniProt P15880 2-293)
Experimental: as §1, §2

RPS23 = RPS23 (UniProt P62266 2-143)
Experimental: as §1, §2

DEFA3 = biological target: T4, DEFA3 (UniProt P59666 65-94, limits assumed)
T4 construct: also called NP_005208.1 (+1)
Experimental: as §1, §2

SRSF1 = biological target: T5, SRSF1 (UniProt Q07955 2-248)
T5 construct: also called NP_008855.1
Experimental: as §1, §2

TNKS1BP1 = biological target: T6, TNKS1BP1 (UniProt Q9C0C2 1-1729)
T6 construct: also called NP_203754.2
Experimental: as §1, §2

RPL22 = RPL22 (UniProt P35268 2-128)
Experimental: as §1, §2

HSPB1 = biological target: T7, HSPB1 (UniProt P04792 1-205)
T7 construct: also called NP_001531.1
Experimental: as §1, §2

DDX20 = biological target: T8, DDX20 (UniProt Q9UHI6 1-824)
T8 construct: also called NP_009135.4
T8 sequence (looked up): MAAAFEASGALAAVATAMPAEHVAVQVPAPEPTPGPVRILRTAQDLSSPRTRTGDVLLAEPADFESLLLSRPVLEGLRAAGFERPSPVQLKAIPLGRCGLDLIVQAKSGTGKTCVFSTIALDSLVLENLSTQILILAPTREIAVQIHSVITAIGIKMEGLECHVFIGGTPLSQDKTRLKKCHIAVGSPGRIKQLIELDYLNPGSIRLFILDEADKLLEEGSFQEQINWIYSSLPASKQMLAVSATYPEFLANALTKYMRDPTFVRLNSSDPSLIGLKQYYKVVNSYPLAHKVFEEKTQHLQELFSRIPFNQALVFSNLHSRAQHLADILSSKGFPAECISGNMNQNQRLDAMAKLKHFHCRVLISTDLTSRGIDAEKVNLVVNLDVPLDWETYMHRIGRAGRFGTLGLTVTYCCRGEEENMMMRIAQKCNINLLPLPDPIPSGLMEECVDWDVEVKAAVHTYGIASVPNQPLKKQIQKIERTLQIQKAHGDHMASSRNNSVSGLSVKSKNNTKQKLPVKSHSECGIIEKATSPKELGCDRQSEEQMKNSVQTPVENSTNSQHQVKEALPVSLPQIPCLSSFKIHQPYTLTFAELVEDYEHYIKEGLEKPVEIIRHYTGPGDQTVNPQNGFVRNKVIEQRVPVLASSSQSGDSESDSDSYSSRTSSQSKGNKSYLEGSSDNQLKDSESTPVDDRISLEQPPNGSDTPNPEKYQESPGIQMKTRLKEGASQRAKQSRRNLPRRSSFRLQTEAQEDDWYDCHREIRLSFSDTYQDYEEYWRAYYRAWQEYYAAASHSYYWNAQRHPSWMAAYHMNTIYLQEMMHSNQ
Experimental: as §1, §2

T3 sequence (Q04637 41-1599 limits assumed): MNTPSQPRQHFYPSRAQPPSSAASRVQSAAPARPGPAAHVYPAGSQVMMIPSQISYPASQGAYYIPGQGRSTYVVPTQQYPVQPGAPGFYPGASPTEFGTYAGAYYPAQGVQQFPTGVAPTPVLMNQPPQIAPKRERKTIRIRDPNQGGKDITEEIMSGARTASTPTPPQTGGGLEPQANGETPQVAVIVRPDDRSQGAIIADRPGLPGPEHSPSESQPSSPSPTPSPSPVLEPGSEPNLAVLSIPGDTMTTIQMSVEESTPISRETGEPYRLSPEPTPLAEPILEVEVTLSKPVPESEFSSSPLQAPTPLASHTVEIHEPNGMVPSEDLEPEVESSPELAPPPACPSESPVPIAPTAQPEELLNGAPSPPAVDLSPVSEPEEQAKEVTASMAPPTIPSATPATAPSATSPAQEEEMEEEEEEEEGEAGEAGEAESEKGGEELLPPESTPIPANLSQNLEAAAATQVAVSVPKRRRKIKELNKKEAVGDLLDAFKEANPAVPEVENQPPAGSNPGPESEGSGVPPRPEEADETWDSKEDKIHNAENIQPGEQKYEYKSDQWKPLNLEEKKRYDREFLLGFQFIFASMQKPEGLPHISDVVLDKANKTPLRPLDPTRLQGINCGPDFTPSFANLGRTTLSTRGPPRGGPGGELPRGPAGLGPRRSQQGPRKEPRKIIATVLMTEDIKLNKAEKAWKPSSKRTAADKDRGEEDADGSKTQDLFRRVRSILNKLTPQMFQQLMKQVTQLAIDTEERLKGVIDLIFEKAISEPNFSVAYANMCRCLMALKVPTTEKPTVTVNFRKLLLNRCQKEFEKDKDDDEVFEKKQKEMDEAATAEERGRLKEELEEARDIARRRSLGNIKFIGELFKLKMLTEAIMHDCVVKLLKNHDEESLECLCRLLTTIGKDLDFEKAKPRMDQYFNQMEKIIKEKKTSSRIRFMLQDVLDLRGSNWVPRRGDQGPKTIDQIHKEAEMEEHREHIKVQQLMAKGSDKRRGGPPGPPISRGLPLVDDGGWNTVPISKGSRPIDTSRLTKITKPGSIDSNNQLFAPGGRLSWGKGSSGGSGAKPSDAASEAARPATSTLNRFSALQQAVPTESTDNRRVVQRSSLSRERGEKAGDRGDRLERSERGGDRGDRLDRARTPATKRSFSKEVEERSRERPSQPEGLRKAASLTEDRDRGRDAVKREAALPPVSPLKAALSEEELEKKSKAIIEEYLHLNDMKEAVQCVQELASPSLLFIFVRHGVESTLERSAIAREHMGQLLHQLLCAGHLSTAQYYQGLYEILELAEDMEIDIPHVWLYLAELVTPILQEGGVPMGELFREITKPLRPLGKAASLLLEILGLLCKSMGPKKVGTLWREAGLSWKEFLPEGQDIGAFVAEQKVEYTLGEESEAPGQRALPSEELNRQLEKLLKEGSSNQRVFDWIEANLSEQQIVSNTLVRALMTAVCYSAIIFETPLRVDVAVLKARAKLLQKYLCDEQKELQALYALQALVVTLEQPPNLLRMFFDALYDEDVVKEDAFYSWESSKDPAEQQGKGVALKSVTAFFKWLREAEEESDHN
T4 sequence (P59666 65-94 limits assumed): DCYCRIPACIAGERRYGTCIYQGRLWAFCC
T6 sequence (Q9C0C2 whole entry): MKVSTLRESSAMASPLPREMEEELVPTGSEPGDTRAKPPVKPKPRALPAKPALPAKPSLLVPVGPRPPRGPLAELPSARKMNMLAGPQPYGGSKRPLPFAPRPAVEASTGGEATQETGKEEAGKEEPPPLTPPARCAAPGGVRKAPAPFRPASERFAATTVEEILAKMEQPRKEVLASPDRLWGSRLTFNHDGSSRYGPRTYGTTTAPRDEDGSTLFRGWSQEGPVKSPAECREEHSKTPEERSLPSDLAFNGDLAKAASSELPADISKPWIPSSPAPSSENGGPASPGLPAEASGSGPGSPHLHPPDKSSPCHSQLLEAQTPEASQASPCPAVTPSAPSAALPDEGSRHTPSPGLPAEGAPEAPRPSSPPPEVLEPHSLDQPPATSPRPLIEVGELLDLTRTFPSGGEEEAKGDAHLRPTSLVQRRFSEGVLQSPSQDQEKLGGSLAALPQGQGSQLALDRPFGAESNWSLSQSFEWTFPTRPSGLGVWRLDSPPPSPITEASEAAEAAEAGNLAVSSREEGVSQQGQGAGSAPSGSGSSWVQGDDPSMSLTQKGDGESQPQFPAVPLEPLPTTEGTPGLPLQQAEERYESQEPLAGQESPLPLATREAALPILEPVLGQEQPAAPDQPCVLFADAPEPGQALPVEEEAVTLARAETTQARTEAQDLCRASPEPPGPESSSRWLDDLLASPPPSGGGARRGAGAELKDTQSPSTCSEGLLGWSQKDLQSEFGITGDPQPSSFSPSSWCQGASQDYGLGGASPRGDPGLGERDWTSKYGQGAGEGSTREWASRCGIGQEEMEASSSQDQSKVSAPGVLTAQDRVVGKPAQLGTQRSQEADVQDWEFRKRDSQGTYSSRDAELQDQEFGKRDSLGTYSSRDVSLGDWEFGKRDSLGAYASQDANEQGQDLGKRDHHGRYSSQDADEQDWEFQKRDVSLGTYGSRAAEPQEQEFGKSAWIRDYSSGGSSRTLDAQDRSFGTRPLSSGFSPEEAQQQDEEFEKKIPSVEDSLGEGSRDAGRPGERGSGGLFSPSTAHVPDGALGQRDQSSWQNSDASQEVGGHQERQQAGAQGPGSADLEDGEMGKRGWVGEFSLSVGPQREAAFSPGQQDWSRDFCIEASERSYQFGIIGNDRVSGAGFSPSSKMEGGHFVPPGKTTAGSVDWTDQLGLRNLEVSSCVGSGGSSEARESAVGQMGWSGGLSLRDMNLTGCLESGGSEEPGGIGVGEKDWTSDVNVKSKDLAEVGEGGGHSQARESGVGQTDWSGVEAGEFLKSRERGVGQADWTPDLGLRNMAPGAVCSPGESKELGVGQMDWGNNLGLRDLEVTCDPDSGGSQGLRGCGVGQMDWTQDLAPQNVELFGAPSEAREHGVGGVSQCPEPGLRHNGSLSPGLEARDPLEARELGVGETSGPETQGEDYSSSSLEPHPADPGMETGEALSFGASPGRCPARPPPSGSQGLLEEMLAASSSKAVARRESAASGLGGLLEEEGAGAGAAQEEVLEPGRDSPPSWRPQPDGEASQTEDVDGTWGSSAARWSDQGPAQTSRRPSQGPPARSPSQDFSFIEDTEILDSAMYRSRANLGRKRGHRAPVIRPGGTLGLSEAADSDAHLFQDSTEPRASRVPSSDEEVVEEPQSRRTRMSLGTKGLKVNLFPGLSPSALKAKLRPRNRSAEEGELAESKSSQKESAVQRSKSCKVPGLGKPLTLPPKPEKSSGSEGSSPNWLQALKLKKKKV
T5 sequence (Q07955 2-248 limits assumed): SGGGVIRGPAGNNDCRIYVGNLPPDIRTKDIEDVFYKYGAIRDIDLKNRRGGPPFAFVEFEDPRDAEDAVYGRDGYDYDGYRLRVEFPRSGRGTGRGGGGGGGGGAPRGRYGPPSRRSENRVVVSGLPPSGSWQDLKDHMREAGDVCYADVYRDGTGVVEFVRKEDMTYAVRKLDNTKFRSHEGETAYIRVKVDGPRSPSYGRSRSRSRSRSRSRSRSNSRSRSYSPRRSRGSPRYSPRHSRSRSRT
T7 sequence (P04792 whole entry): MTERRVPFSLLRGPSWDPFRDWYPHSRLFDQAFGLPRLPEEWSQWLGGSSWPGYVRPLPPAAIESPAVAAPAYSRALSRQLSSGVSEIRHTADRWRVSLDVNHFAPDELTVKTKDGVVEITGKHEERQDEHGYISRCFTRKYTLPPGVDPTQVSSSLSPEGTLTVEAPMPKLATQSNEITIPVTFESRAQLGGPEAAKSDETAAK
T2 sequence (Q08945 2-709 limits assumed): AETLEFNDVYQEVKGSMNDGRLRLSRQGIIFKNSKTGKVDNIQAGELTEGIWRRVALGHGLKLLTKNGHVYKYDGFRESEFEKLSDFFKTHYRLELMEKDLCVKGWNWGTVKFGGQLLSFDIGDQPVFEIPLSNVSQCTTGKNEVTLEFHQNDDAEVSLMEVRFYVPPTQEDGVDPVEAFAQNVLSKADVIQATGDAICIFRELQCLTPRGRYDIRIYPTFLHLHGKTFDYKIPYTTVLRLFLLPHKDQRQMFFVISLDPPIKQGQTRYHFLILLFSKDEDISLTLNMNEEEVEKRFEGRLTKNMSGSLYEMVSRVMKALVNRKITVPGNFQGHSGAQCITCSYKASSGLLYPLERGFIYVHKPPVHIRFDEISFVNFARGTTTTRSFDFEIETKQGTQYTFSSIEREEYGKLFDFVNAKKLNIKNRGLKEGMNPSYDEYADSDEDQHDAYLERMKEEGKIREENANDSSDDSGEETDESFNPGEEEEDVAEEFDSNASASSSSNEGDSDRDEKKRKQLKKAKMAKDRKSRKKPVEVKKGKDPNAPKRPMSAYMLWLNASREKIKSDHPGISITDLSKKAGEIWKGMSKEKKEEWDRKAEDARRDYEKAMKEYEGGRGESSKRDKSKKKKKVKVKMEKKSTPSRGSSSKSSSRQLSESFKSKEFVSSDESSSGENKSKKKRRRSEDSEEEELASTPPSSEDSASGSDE

B1: N-terminal FLAG tagged B3GNT2 (enzyme, human, UniProt Q9NY97 1-397, looked up)
chain: MSVGRRRIKLLGILMMANVFIYFIMEVSKSSSQEKNGKGEVIIPKEKFWKISTPPEAYWNREQEKLNRQYNPILSMLTNQTGEAGRLSNISHLNYCEPDLRVTSVVTGFNNLPDRFKDFLLYLRCRNYSLLIDQPDKCAKKPFLLLAIKSLTPHFARRQAIRESWGQESNAGNQTVVRVFLLGQTPPEDNHPDLSDMLKFESEKHQDILMWNYRDTFFNLSLKEVLFLRWVSTSCPDTEFVFKGDDDVFVNTHHILNYLNSLSKTKAKDLFIGDVIHNAGPHRDKKLKYYIPEVVYSGLYPPYAGGGGFLYSGHLALRLYHITDQVHLYPIDDVYTGMCLQKLGLVPEKHKGFRTFDIEEKNKNNICSYVDLMLVHSRKPQEMIDIWSQLQSAHLKC
notes: Bait of the co-IP; pulled down with mouse anti-FLAG from cell lysate; also called N-FLAG B3GNT2; N-term FLAG; not shown: FLAG tag at the N-terminus
- co-IP mass spectrometry count (RPL37A): 6
- co-IP mass spectrometry count (NCCRP1): 4
- co-IP mass spectrometry count (SSRP1): 0
- co-IP mass spectrometry count (EIF4G1): 2
- co-IP mass spectrometry count (RPS2): 13
- co-IP mass spectrometry count (RPS23): 9
- co-IP mass spectrometry count (DEFA3): 5
- co-IP mass spectrometry count (SRSF1): 4
- co-IP mass spectrometry count (TNKS1BP1): 2
- co-IP mass spectrometry count (RPL22): 0
- co-IP mass spectrometry count (HSPB1): 3
- co-IP mass spectrometry count (DDX20): 0
